FireProtDB (doi:10.1002/pro.5560030904)
Several values for one entry are separate records, joined by “and”; a condition that tells them apart may be missing. Equal values may be shown once.

Settings: Oryctolagus cuniculus; pH 7.4; Thermal; DSC; sodium phosphate 10 mM; transition: 4; reversible: yes; whole UniProt chain shown

B1: Fructose-bisphosphate aldolase A wild type, P00883 (protein)
chain: MPHSHPALTPEQKKELSDIAHRIVAPGKGILAADESTGSIAKRLQSIGTENTEENRRFYRQLLLTADDRVNPCIGGVILFHETLYQKADDGRPFPQVIKSKGGVVGIKVDKGVVPLAGTNGETTTQGLDGLSERCAQYKKDGADFAKWRCVLKIGEHTPSALAIMENANVLARYASICQQNGIVPIVEPEILPDGDHDLKRCQYVTEKVLAAVYKALSDHHIYLEGTLLKPNMVTPGHACTQKYSHEEIAMATVTALRRTVPPAVTGVTFLSGGQSEEEASINLNAINKCPLLKPWALTFSYGRALQASALKAWGGKKENLKAAQEEYVKRALANSLACQGKYTPSGQAGAAASESLFISNHAY
unfolding enthalpy (calorimetric): 255 kJ/mol and 142 kJ/mol
